Assay results from the nanobody polyreactivity screen of Harvey et al. (2022).

Experiment: yeast display, Sf9 membrane polyspecificity reagent, FACS + sequencing; frameworks hold sequencing errors
In short: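 Sorting gates, low and high (top ~1%), were placed on anti-HA fluorescence to track expression and on streptavidin fluorescence to track reagent binding. A clone's polyreactivity label is taken from the gate it came out of. The reagent was 10% biotinylated, detergent-solubilized Sf9 membrane, applied for 1 hour at 4 °C to galactose-induced yeast display cells.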

Sequence: QVQLVESGGGLVQAGGSHSLSCAASGSTFKHYAMGWYRQAPGKERELVAAISWGGVNTDYADSVKGRFTISRDNAKNTVYLQMNSLNPEDTAVYYCAAGRWSVGTYDYWGQGTQVTVSS
- polyreactivity (PSR sort gate): low polyreactivity

Sequence: QVQLVESGGGLVQAGGSIPLSCAASGIIFYYNTMGWYRQAPGKERELVATSTASDGSTYADSVKGRFTISSDNAKNTVYLQMNRLKPEDTAVYYCNADTRTQGPFSAPYYREMNYWGQGSQVTVSS
- polyreactivity (PSR sort gate): low polyreactivity

Sequence: QVQLVESGGGLVQAGGSIRLSCAASGFIFYVYAMGRSRQAPGKERELVAAISGGGDSTYYADSVKGRFTTSRDNAKNTVYLQMNSLKPEDTAVYYCATRRYPEVVNGESGYWGQGTQVTVSS
- polyreactivity (PSR sort gate): low polyreactivity

Sequence: QVQLVESGGGLVQAGGSIRLSCAASGFTITHYAMGWYRQAPGKERELVAAISASGGSTYYADSVKGRFTISRDNAKYTVYVQMNSLKPEDTAVYYCAATWDYRRGRYPYDYWGQGTQVTVSS
- polyreactivity (PSR sort gate): high polyreactivity

Sequence: QVQLVESGGGLVQAGGSIRLSCAASGGTFGYYVMGWYRQAPRKERELVAAITSGGSTKYADSVKGRFTISRDNAKNTVYLQMNSLKPEDTAVYYCAADVTRREPYQSYDYWGQGTQVTVSS
- polyreactivity (PSR sort gate): low polyreactivity

Sequence: QVQLVESGGGLVQAGGSIRLSCAASGNTFRWYAMGWYRQAPGKEREFVAAISSSGGSTYYADSVKGRFTISRDNAKNTVYLQMNSLKPEDTAVYYCNAASVTRHVSFATDYEYWGQGTQVTVSS
- polyreactivity (PSR sort gate): high polyreactivity

Sequence: QVQLVESGGGLVQAGGSIRLSCAASGNTFVLYTMGWYRQAPGKERELVAAISGRGTNTYYADSVKGRFTISRDNAKNTVYLQMNSLKPEDTAVYYCAARYKTLVTDYEYWGQGTQVTVSS
- polyreactivity (PSR sort gate): high polyreactivity

Sequence: QVQLVESGGGLVQAGGSIRLSCAASGRIFKAYAMGWYRQAPGKERELVAAITRGGRTKYADSVKGRFTLSRDNAKNTVYLQMNSLKPEYTAVYYCNPPRGVLYDYWGHGTQVTVSS
- polyreactivity (PSR sort gate): high polyreactivity

Sequence: QVQLVESGGGLVQAGGSIRLSCAASGRIFRYNAMGWYRQAPGKERELVAAISGSGDRTYYADSVKGRFTISRDTAKNTVYLQMNSLKPEDTAVYDCAADVVWRQYGSWFYYWGQGTQVTVSS
- polyreactivity (PSR sort gate): high polyreactivity

Sequence: QVQLVESGGGLVQAGGSIRLSCAASGRILYYYVMGWYRQAPGKERELVAAITRGGSTDYADSVKGRFTISRDNAKNTVYLQMNSLKPEDTAVFYCAVPSWPFWVRVEGDYWGQGTQVSVSS
- polyreactivity (PSR sort gate): low polyreactivity

Sequence: QVQLVESGGGLVQAGGSIRLSCAASGRTFDPYSRGWYRQAPGKERELVAAISRSGGSTYYADSVKGRFTISRDNAKNTVYLQLNSLKPEDTAVYYFDADASRYYYEYDYWGQGTQVNVSS
- polyreactivity (PSR sort gate): high polyreactivity

Sequence: QVQLVESGGGLVQAGGSIRLSCAASGRTFPVNAMGWYRQAPGKERELVAAITTNGGRTYYADSVKGRFTISRDNEKNTVYLQMNSLKPEDTAVYYCATGAYTDKRYGYWGQGTQVTVSS
- polyreactivity (PSR sort gate): high polyreactivity

Sequence: QVQLVESGGGLVQAGGSIRLSCAASGSIFAPYAMGSYRQATGKVREFVAAISWSGGGTYYADSVQGRFTISRDNAKNTVNLQMNSLKPEDTAVYYCAAYRNKESIFRTILDYWGQGTQVTVSS
- polyreactivity (PSR sort gate): low polyreactivity

Sequence: QVQLVESGGGLVQAGGSIRLSCAASGSIFVDNARGWYRPAPGKERELVAAIRSRDTSTYYADSVKGRFTISRDNAKHTVYLQMNSLKPEDTAVYYCAARTSKRVSQYNYWGQGTQVTVSS
- polyreactivity (PSR sort gate): high polyreactivity

Sequence: QVQLVESGGGLVQAGGSIRLSCAASGSTYGTNTMGWSRQAPGKERELVAGITSGGNTNYADSVKGRFTISRDNAKNTVYLQMNSLKPEDSAVYYCAPRYIYYYAYGYNYWGQGTHVTVSS
- polyreactivity (PSR sort gate): high polyreactivity

Sequence: QVQLVESGGGLVQAGGSIRLSCAASGTIFRSYAMGWYRQAPGKERELVAAITSSSGSTYYADSVKGRFTISRDNAKNTVYLQMNSLKPEDTAGYYFNAPYWKSRFRAYYHWGQGTQVTVSS
- polyreactivity (PSR sort gate): high polyreactivity

Sequence: QVQLVESGGGLVQAGGSIRLTCAASGRIFYLNAMGWYRQAPGKEREMGAAITWSGGRTYYADSVKGRFTISRDNAKNTVYLQMNSLKPEDTAVYYCAAVPRPGPNTVLTPYGYWGQGTQVTVSS
- polyreactivity (PSR sort gate): high polyreactivity
